From article PMC10202959 come the findings set out here.

Assay in all cases: ELISA; plates coated with 100 nM ECM protein in PBS (1 h, 37 °C), blocked with 1% BSA in PBS-T; PDGF-BB or IL-1Ra variants at increasing concentrations in PBS-T with 0.1% BSA, 1 h at room temperature; detected with biotinylated antibodies; one site specific binding model; n = 3
For orientation: In an ELISA, binding on a coated surface is turned into a signal by an enzyme label.

For one experiment, the target named is human tenascin C (human) (UniProt P24821).
Sequence of human tenascin C (human) (P24821 23-2201): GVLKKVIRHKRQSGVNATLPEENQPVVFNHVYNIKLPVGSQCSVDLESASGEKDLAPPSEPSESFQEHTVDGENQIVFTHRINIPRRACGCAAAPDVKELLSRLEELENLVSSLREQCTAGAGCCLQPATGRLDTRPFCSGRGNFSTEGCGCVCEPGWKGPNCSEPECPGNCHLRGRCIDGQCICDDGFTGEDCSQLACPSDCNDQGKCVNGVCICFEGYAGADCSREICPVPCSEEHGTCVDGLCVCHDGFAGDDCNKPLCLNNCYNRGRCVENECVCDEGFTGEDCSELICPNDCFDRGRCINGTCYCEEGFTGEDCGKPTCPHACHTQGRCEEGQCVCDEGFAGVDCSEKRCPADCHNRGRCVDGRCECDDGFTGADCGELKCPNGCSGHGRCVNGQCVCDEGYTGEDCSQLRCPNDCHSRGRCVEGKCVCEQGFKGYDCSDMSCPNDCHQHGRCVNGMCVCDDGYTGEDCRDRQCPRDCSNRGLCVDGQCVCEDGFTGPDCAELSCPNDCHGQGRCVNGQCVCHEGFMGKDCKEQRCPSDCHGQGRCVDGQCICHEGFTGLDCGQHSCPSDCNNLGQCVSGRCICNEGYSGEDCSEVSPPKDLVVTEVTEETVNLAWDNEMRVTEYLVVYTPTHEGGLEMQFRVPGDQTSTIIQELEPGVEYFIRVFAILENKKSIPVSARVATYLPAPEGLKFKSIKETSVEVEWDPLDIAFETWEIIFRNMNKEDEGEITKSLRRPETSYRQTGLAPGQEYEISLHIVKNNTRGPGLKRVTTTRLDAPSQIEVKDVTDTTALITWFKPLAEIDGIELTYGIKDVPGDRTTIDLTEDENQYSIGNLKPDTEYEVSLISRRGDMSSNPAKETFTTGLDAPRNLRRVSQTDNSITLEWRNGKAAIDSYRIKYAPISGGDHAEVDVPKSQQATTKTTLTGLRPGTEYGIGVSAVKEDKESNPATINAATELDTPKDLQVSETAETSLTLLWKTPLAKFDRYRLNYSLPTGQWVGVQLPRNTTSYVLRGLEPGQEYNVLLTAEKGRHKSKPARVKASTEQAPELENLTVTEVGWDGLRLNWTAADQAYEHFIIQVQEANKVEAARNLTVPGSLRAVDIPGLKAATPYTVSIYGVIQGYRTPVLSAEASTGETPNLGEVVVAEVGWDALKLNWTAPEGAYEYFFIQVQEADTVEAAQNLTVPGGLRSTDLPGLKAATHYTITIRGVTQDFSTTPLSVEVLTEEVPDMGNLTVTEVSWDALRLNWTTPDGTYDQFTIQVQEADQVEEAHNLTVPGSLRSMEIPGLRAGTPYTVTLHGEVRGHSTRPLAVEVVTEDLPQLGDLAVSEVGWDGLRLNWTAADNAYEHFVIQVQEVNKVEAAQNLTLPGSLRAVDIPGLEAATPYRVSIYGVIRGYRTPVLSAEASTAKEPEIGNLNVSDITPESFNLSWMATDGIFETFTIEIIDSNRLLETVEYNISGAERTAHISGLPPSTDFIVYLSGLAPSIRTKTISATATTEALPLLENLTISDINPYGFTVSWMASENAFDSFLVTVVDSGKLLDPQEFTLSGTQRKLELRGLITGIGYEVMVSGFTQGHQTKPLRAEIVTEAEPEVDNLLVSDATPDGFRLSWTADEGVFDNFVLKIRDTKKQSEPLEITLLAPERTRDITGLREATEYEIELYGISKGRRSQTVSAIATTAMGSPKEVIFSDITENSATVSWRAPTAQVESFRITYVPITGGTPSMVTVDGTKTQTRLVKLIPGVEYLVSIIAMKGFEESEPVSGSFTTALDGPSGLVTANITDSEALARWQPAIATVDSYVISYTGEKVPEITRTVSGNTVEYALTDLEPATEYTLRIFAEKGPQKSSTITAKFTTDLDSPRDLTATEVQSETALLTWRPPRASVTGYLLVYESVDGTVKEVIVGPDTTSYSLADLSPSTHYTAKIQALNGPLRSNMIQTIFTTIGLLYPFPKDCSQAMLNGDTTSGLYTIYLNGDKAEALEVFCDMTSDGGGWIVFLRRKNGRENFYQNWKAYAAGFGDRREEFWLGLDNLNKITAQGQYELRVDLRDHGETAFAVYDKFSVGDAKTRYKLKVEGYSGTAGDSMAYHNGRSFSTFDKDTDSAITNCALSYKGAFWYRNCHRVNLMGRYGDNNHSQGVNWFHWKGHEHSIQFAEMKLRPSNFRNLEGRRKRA
Experiment [1] has as its target human plasma fibronectin (human).
Experiment [2] addresses human vitronectin (human) (UniProt P04004).

Sequence of human vitronectin (human) (P04004 20-478): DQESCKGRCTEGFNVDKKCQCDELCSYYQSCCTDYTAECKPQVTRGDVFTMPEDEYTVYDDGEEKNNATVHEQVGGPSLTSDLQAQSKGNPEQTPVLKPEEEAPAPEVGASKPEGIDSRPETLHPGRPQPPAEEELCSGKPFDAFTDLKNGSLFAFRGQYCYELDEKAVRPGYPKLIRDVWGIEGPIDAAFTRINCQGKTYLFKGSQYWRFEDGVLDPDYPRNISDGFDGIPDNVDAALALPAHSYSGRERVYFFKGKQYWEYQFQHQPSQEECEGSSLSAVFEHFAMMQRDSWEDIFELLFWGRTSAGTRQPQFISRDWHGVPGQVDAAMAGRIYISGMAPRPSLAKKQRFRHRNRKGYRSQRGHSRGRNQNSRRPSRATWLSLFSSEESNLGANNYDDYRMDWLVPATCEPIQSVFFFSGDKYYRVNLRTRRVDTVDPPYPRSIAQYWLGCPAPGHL

For the substance AREG26-38/IL-1Ra, the figures for the Kd (with human tenascin C (human); in experiment [1]; in experiment [2]) were 0.0186 µM, 0.0165 µM and 0.0019 µM, respectively.
For AREG26-38/PDGF-BB, in that order: 0.0193 µM, 0.0059 µM and 0.0013 µM.

One may read the Kd as the concentration at which binding is half-saturated. Lower therefore signals higher affinity.
